Assay results: patent US20040103447A1, “Schizophrenia-like mental disease model animal, method of constructing the same and use thereof” (priority 2001, published 2004)

Assays:
SD rats [1] = test: Startle response intensity to 120 db sound after neonatal subcutaneous administration; assay type: in vivo, rat; settings: 1.0 mg/kg s.c. 10 times from 2 days after birth, compared to cytochrome-C administration group
Method: As the animal, SD rats (Japan SLC) were used from 2 days after birth. As a reagent, human recombinant interleukin 1α and cytochrome-C (Sigma) were each dissolved in physiological saline at 40 μg/mL and used. The reagents were subcutaneously administered 10 times in total (up to 11 days after birth) into the neck at 25 μL (each 1.0 mg/kg) per 1 g of rat body weight […] from 2 days after birth. From 21 days after birth, startle response intensity and prepulse inhibition were measured with an apparatus of measuring startle response of small animal (San Diego Instruments). That is, as a sensory stimulus to induce a startle response, a sound stimulation was used, and as a prepulse stimulation, a sound pressure stimulus of 75 db was given, which was 5 db higher than the environmental noise (background noise) level. After 100 milli-seconds, a pulse stimulus of a sound pressure of 120 db was given. The ratio of decrease in the startle response when prepulse was combined to the startle response with 120 db alone was considered as the prepulse inhibition (PPI).

SD rats [2] = test: Prepulse inhibition (PPI) in startle response after neonatal subcutaneous administration; assay type: in vivo, rat; settings: 75 db prepulse, 120 db pulse after 100 ms, 1.0 mg/kg s.c. 10 times from 2 days after birth, compared to cytochrome-C group
Excerpt: The prepulse inhibition in startle response is a test for perception-response ability using a startle response, which can be commonly evaluated in human and animals, as an index. This test is characterized in that abnormalities in attention and ability to process information in brain, which are considered to be the main disease state of schizophrenia, can be scientifically and objectively evaluated. The test itself is a measurement of decrease in a fright startle response to a big sound, which is attributable to the previous application of a weak sound stimulus (prepulse) of the level incapable of causing a fright startle response, 30-150 mSec before causing a fright startle response by making a noise of about 120 db. The decrease produced by the prepulse is called a prepulse inhibition, which is known to indicate abnormal decrease in schizophrenia patients and schizophrenia animal models (Braff D. L., Geyer M. A., Arch. Gen. Psychiatry, 47, 181-188, 1990).
As the animal, SD rats (Japan SLC) were used from 2 days after birth. As a reagent, human recombinant interleukin 1α and cytochrome-C (Sigma) were each dissolved in physiological saline at 40 μg/mL and used. […] From 21 days after birth, startle response intensity and prepulse inhibition were measured with an apparatus of measuring startle response of small animal (San Diego Instruments). […]

B1: IL-1α: human recombinant interleukin 1α, a cytokine, dissolved in physiological saline and administered to neonatal rats to induce the model (protein, UniProt P01583 113-271, looked up)
Interleukin-1 alpha: SAPFSFLSNVKYNFMRIIKYEFILNDALNQSIIRANDQYLTAAALHNLDEAVKFDMGAYKSSKDDAKITVILRISKTQLYVTAQDEDQPVLLKEMPEIPKTITGSETNLLFFWETHGTKNYFTSVAHPNLFIATKQDYWVCLAGGPPSITDFQILENQA
**Q.** For B1, which “intensity of startle response to the sound pressure of 120 db” value (SD rats [1]; 22 days after birth, FIG. 1B) is on record?
**A.** Its value is “such abnormality was not found”.

**Q.** What about the “intensity of startle response to the sound pressure of 120 db” value (SD rats [1]; 60 days after birth, FIG. 1A) of the same molecule?
**A.** The value was “significant increase”.

**Q.** And the prepulse inhibition (SD rats [2]; 22 days after birth, FIG. 2B)?
**A.** The prepulse inhibition was “such abnormality was not found”.

**Q.** And the prepulse inhibition (SD rats [2]; 60 days after birth, p<0.05, FIG. 2A)?
**A.** The prepulse inhibition was “significant decrease”.
